# How the values were obtained:
# [1] = target: HveC on CHO-HveC cells (UniProt Q15223); assay: cell-based or functional assay
# [2] = target: HveA on CHO-HveA cells (UniProt Q92956); assay: cell-based or functional assay
# Chain of HveA on CHO-HveA cells (Q92956 39-283 limits assumed): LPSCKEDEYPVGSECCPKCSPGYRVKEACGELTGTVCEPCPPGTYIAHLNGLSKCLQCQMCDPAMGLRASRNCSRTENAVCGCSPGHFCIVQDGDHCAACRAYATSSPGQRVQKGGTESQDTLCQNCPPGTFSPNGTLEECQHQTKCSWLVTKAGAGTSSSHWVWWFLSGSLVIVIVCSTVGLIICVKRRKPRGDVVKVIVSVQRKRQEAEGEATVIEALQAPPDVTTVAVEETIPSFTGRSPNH
# Chain of HveC on CHO-HveC cells (Q15223 31-517 limits assumed): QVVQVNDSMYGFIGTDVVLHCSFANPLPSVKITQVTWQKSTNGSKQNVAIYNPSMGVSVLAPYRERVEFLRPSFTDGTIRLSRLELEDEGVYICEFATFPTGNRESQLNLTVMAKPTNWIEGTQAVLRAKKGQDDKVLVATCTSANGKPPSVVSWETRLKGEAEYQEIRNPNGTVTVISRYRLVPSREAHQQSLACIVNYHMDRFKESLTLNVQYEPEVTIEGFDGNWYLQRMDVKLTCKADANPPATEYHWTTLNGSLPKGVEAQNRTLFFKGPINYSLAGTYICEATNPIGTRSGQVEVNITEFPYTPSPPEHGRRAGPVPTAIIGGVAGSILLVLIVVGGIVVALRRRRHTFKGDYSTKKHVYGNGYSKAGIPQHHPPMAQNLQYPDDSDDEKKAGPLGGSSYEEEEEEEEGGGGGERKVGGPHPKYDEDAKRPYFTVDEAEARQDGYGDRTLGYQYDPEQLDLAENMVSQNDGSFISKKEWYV
substance,measurement,setting,value
gD H39Q (ligand),"% Complementation, CHO-HveC",[1],100%
same,"% Complementation, CHO-HveA",[2],50%
gD D6L (ligand),"% Complementation, CHO-HveC",[1],98%
same,"% Complementation, CHO-HveA",[2],0%
gD Q27G (ligand),"% Complementation, CHO-HveC",[1],0%
same,"% Complementation, CHO-HveA",[2],0%
gD D30V (ligand),"% Complementation, CHO-HveC",[1],8%
same,"% Complementation, CHO-HveA",[2],0%
gDΔ21-24 (ligand),"% Complementation, CHO-HveC",[1],100%
same,"% Complementation, CHO-HveA",[2],0%
gD P32H (from UniProt A1Z0Q5 26-394) (ligand),"% Complementation, CHO-HveC",[1],100%
same,"% Complementation, CHO-HveA",[2],6%
gDΔ10-16 (ligand),"% Complementation, CHO-HveC",[1],100%
same,"% Complementation, CHO-HveA",[2],0%
gD I40N (from UniProt A1Z0Q5 26-394) (ligand),"% Complementation, CHO-HveC",[1],0%
same,"% Complementation, CHO-HveA",[2],0%
gDΔ6-24:GSK (ligand),"% Complementation, CHO-HveC",[1],19%
same,"% Complementation, CHO-HveA",[2],0%
gD L28C (ligand),"% Complementation, CHO-HveC",[1],100%
same,"% Complementation, CHO-HveA",[2],0%
gD L44G (ligand),"% Complementation, CHO-HveC",[1],8%
same,"% Complementation, CHO-HveA",[2],0%
gD L25D (from UniProt A1Z0Q5 26-394) (ligand),"% Complementation, CHO-HveC",[1],14%
same,"% Complementation, CHO-HveA",[2],0%
gD L9R (ligand),"% Complementation, CHO-HveC",[1],97%
same,"% Complementation, CHO-HveA",[2],0%
gD L25T (from UniProt A1Z0Q5 26-394) (ligand),"% Complementation, CHO-HveC",[1],3%
same,"% Complementation, CHO-HveA",[2],0%
gD A7H (ligand),"% Complementation, CHO-HveC",[1],100%
same,"% Complementation, CHO-HveA",[2],80%
gD D6A (ligand),"% Complementation, CHO-HveC",[1],99%
same,"% Complementation, CHO-HveA",[2],0%
gD D26S (ligand),"% Complementation, CHO-HveC",[1],7%
same,"% Complementation, CHO-HveA",[2],20%
gD A7R (ligand),"% Complementation, CHO-HveC",[1],98%
same,"% Complementation, CHO-HveA",[2],0%
gDΔ17-21 (ligand),"% Complementation, CHO-HveC",[1],100%
same,"% Complementation, CHO-HveA",[2],0%
gD Q27P (rid1) (ligand),"% Complementation, CHO-HveC",[1],83%
same,"% Complementation, CHO-HveA",[2],0%
gD Q27T (ligand),"% Complementation, CHO-HveC",[1],0%
same,"% Complementation, CHO-HveA",[2],0%
gD G33L (from UniProt A1Z0Q5 26-394) (ligand),"% Complementation, CHO-HveC",[1],79%
same,"% Complementation, CHO-HveA",[2],9%
gD L44C (ligand),"% Complementation, CHO-HveC",[1],83%
same,"% Complementation, CHO-HveA",[2],69%
gD H39V (ligand),"% Complementation, CHO-HveC",[1],66%
same,"% Complementation, CHO-HveA",[2],75%
gD I40A (ligand),"% Complementation, CHO-HveC",[1],0%
same,"% Complementation, CHO-HveA",[2],0%
gD S8A (ligand),"% Complementation, CHO-HveC",[1],100%
same,"% Complementation, CHO-HveA",[2],40%
gD L44P (ligand),"% Complementation, CHO-HveC",[1],71%
same,"% Complementation, CHO-HveA",[2],53%
gD Q41P (ligand),"% Complementation, CHO-HveC",[1],18%
same,"% Complementation, CHO-HveA",[2],0%
gD T29G (ligand),"% Complementation, CHO-HveC",[1],100%
same,"% Complementation, CHO-HveA",[2],0%
gD D26V (ligand),"% Complementation, CHO-HveC",[1],26%
same,"% Complementation, CHO-HveA",[2],0%
gD K1D (ligand),"% Complementation, CHO-HveC",[1],100%
same,"% Complementation, CHO-HveA",[2],100%
gD R36A (from UniProt A1Z0Q5 26-394) (ligand),"% Complementation, CHO-HveC",[1],0%
same,"% Complementation, CHO-HveA",[2],0%
gD T29Y (ligand),"% Complementation, CHO-HveC",[1],100%
same,"% Complementation, CHO-HveA",[2],0%
gD A7L (ligand),"% Complementation, CHO-HveC",[1],100%
same,"% Complementation, CHO-HveA",[2],0%
gD L25I (from UniProt A1Z0Q5 26-394) (ligand),"% Complementation, CHO-HveC",[1],5%
same,"% Complementation, CHO-HveA",[2],0%
gD R36D (from UniProt A1Z0Q5 26-394) (ligand),"% Complementation, CHO-HveC",[1],0%
same,"% Complementation, CHO-HveA",[2],0%
gD R36I (from UniProt A1Z0Q5 26-394) (ligand),"% Complementation, CHO-HveC",[1],0%
same,"% Complementation, CHO-HveA",[2],0%
gD^-R (gD A5I) (ligand),"% Complementation, CHO-HveC",[1],100%
same,"% Complementation, CHO-HveA",[2],85%
gD L28G (ligand),"% Complementation, CHO-HveC",[1],100%
same,"% Complementation, CHO-HveA",[2],0%
gD L25H (from UniProt A1Z0Q5 26-394) (ligand),"% Complementation, CHO-HveC",[1],12%
same,"% Complementation, CHO-HveA",[2],0%
gD Q27S (ligand),"% Complementation, CHO-HveC",[1],9%
same,"% Complementation, CHO-HveA",[2],0%
gD D26H (from UniProt A1Z0Q5 26-394) (ligand),"% Complementation, CHO-HveC",[1],11%
same,"% Complementation, CHO-HveA",[2],10%
gD L28P (ligand),"% Complementation, CHO-HveC",[1],69%
same,"% Complementation, CHO-HveA",[2],0%
gD L28F (ligand),"% Complementation, CHO-HveC",[1],41%
same,"% Complementation, CHO-HveA",[2],0%
gD L9P (ligand),"% Complementation, CHO-HveC",[1],100%
same,"% Complementation, CHO-HveA",[2],0%
gD D30H (from UniProt A1Z0Q5 26-394) (ligand),"% Complementation, CHO-HveC",[1],6%
same,"% Complementation, CHO-HveA",[2],0%
gD S8L (ligand),"% Complementation, CHO-HveC",[1],99%
same,"% Complementation, CHO-HveA",[2],0%
gD Q27H (ligand),"% Complementation, CHO-HveC",[1],14%
same,"% Complementation, CHO-HveA",[2],0%
gD L28S (ligand),"% Complementation, CHO-HveC",[1],83%
same,"% Complementation, CHO-HveA",[2],0%
gDΔ2-5 (ligand),"% Complementation, CHO-HveC",[1],95%
same,"% Complementation, CHO-HveA",[2],0%
gD D30I (ligand),"% Complementation, CHO-HveC",[1],4%
same,"% Complementation, CHO-HveA",[2],0%
gD L9A (ligand),"% Complementation, CHO-HveC",[1],100%
same,"% Complementation, CHO-HveA",[2],0%
gD P31G (from UniProt A1Z0Q5 26-394) (ligand),"% Complementation, CHO-HveC",[1],100%
same,"% Complementation, CHO-HveA",[2],0%
gDΔ6-9 (ligand),"% Complementation, CHO-HveC",[1],100%
same,"% Complementation, CHO-HveA",[2],0%
wild-type gD (HSV-1 strain KOS) (ligand),"% Complementation, CHO-HveC",[1],100%
same,"% Complementation, CHO-HveA",[2],100%
